Reference: publication doi:10.1101/2021.12.31.474340

Biological target: guanylyl cyclase-A (GC-A), human, stably expressed in QBIHEK293A cells (human) (UniProt P16066)
Assay: radioligand binding

UniProt P16066, sequence (P16066 33-473): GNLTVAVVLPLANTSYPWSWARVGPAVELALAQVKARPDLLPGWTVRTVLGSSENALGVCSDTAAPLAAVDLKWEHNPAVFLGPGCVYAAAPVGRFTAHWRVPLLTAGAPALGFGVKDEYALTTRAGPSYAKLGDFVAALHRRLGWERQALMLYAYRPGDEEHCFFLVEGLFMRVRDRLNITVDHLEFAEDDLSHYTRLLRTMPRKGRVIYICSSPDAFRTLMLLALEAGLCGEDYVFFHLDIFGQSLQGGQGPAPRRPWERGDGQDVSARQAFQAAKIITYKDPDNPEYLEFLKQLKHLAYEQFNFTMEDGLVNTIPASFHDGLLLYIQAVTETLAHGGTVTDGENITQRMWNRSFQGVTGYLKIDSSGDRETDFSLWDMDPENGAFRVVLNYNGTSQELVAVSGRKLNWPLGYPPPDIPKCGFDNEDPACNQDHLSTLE

## ^125I-ANP (peptide)
  increase of binding with increasing concentrations of compound #20: 71%
  increase of overall binding with 10 uM compound #20 against control: 60%
